{
  "source": "the nanobody polyreactivity screen of Harvey et al. (2022)",
  "data": [
    {"assay": "yeast display, Sf9 membrane polyspecificity reagent, FACS + sequencing; frameworks hold sequencing errors", "method_in_brief": "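A nanobody's polyreactivity label depends on the gate it was sorted from. Yeast display cells were stained with 10% biotinylated, detergent-solubilized Sf9 membrane reagent for 1 hour at 4 °C, enriched on streptavidin microbeads and sorted by FACS. The low and high (top ~1%) gates were set on anti-HA fluorescence for expression and streptavidin fluorescence for reagent binding.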", "values": [
      {"sequence": "QVQLVESGGGLVQAGGSLRLRCAASGRTFAFYGMGWYRQAPGNARELVAAITKRGGSTYYADSVKGRFTISLDNAKYTVYLQMNSLKPEDTAVYYCAATGVKGRIAVWYGYWGQGTQVTVSS", "polyreactivity (PSR sort gate)": "high polyreactivity"},
      {"sequence": "QVQLVESGGGLVQAGGSLRLRCAASGRTFSGYAMGWYRQSPGKERELVAAITASGSSTYYADSVKGRFTSSRDNAKNTVDLQMNSLKPEDTAVYYCAADYTGDWADGPHSLREYDYWGQGTQVTVSS", "polyreactivity (PSR sort gate)": "low polyreactivity"},
      {"sequence": "QVQLVESGGGLVQAGGSLRLRCAASGRTFSSNAMGWSRQAPGKERQLVASITWSGRTYYADSVKGRFTNSRDNAKNTVYLQMNSRNPEDHAVYYCATVYRQESYFYTLYYWGQGTQVTVSS", "polyreactivity (PSR sort gate)": "high polyreactivity"},
      {"sequence": "QVQLVESGGGLVQAGGSLRLRCAASGRTFVGTAMGWYRQAPGKERELVAAISWDGGSPYYADSVKGRFTISRDNAKNTVYLQMNSLKPEDTAVYYCAALYRPSAFRGYGYWGQGTQVTVSS", "polyreactivity (PSR sort gate)": "high polyreactivity"},
      {"sequence": "QVQLVESGGGLVQAGGSLRLRCAASGRTFWKNAMGWYRQEPRKECELVAAISWGGGSTYYADSVKGRFTISRDNAKNTVYLQMNSLKPEDTAVYYCNVYYRRVLLGFYYWGQGTQVTVSS", "polyreactivity (PSR sort gate)": "low polyreactivity"},
      {"sequence": "QVQLVESGGGLVQAGGSLRLRCAASGRYAMGWYRQAPGKEREFVARITWSGGSTYYADSVKGRFTISRDNAKNTVYLQMNSLNPEDTAVYYCAKVSRRTDYYYWGQGTQVTVSS", "polyreactivity (PSR sort gate)": "high polyreactivity"},
      {"sequence": "QVQLVESGGGLVQAGGSLRLRCAASGSIFFFYAMGWYSQARGKEREFVAGITYSGGITYYADSVKGRFTISRDNAKNTDYLQMNSLKPEDTAVYFCDYGGGVYQYGYWGQGTQVTVSS", "polyreactivity (PSR sort gate)": "low polyreactivity"},
      {"sequence": "QVQLVESGGGLVQAGGSLRLRCAASGSIFISYAMGWYRQAPGKERELVAAISIRGTRTFYADSVKGRFTISRDNAKNTVYLQMNSLKPEDTAVYYCAARAPWPKWGYYYWGQGTQVTVSS", "polyreactivity (PSR sort gate)": "high polyreactivity"},
      {"sequence": "QVQLVESGGGLVQAGGSLRLRCAASGSIFKRYAMGWYRQAPGKERELVAAISWGGGRTYYADSVKGRFTISRDTAKNTVYLQMNSLKPEDTAVYYCNRVGSYGQSNSYQGGDYWGQGTQVTVSS", "polyreactivity (PSR sort gate)": "high polyreactivity"},
      {"sequence": "QVQLVESGGGLVQAGGSLRLRCAASGSIFKTYAMGWYRQAPRKERELVAAITTSGGRTYYADSVKGRFTISRDNAKYTVYLQMNSLKPEDTAVYYCNADLFPGYVSYPEYDYWGQGTQVTVSS", "polyreactivity (PSR sort gate)": "low polyreactivity"},
      {"sequence": "QVQLVESGGGLVQAGGSLRLRCAASGSIFNSYAMGWSRQAPGKERELVAAISIRGTRTYYADSVKGRFTISRDNAKNTVYLQMNSLKPEDTAVYYCAADASYTEGMDYWGQGTQVTVSS", "polyreactivity (PSR sort gate)": "high polyreactivity"},
      {"sequence": "QVQLVESGGGLVQAGGSLRLRCAASGSIFSRNAMGWYRQAPGKERELVAAISGRGGSTYYADSVKGRFTISRDNAMNTVYLQMNRLKPEDTAVYYCAKAVIYRLSEAMDYWGQGSQVTVSS", "polyreactivity (PSR sort gate)": "high polyreactivity"},
      {"sequence": "QVQLVESGGGLVQAGGSLRLRCAASGSILPWYAMGWYRHAPGKERELVAVITSDGGTNYADSVKGRFTISRDNSKNTVYLQMNSLKPEDTAVYYCAADRFSQSGFDSWGQGTQVTVSS", "polyreactivity (PSR sort gate)": "low polyreactivity"},
      {"sequence": "QVQLVESGGGLVQAGGSLRLRCAASGSNFDTYAMGWYRQAPGKERELDAAINSGGGTNYADSVKGRFTISRDNANNTVYLQMNSLKPEDTAVYYCATDIRREAGGGDFDYWGQATQVTVSS", "polyreactivity (PSR sort gate)": "low polyreactivity"},
      {"sequence": "QVQLVESGGGLVQAGGSLRLRCAASGSNFKHNDMGWSRPAPGKERELVAAISRSGGSTYYADSVKGRFTISRDNGKNTVYLPMNSLKPEDTAVYYCNAGRRTGRYGYWGQGTQVTVSS", "polyreactivity (PSR sort gate)": "high polyreactivity"},
      {"sequence": "QVQLVESGGGLVQAGGSLRLRCAASGSTCWFSAMGWSRQATGTERELVATITIGARTYADSVKGRCTISRDNPKTTVYVQMNSLKPEETAVYYCAARRRRLEYDYGRNDYWGQGTQVTVTS", "polyreactivity (PSR sort gate)": "low polyreactivity"},
      {"sequence": "QVQLVESGGGLVQAGGSLRLRCAASGSTFASYAMGGYRQAPGKERELVAAITRSGGSTYYADSVKGRFTISRVKAKNTVYLQMNSLKPEDTAVYYCARRAVYGIFDYWGQGTQVTVSS", "polyreactivity (PSR sort gate)": "high polyreactivity"},
      {"sequence": "QVQLVESGGGLVQAGGSLRLRCAASGSTFDSYAMGWYRQAPGKERELVAAITTTGGSTFYADSVKGRFTISRDYAKNTVYLQMNSLKPEDTAVYYCAADDGWQEFEYWGQGTQVTVSS", "polyreactivity (PSR sort gate)": "low polyreactivity"},
      {"sequence": "QVQLVESGGGLVQAGGSLRLRCAASGSTFGGYAMGWYRQAPGKERELVAAISRRGGRTYYADSVKGRFRISRDNAKNTVYLQRNSLKPEDTAVYYSAADWSYVRYYYWGQGTQVTVSS", "polyreactivity (PSR sort gate)": "high polyreactivity"},
      {"sequence": "QVQLVESGGGLVQAGGSLRLRCAASGSTFGKNAMGWYRQAPGKERELVAAISKNGGSTYYADSVKGRFTISRDNAKNTVYILMNSLKPEDTAVYYCNTRRKNFVKSSQVEYWGQGTQVTVSS", "polyreactivity (PSR sort gate)": "high polyreactivity"},
      {"sequence": "QVQLVESGGGLVQAGGSLRLRCAASGSTFGLYTMGWYSQAPGKERELVASISIVGSTYYADSVKGLFTSSRDNAKNTVYFQMNSLKPVDTAVYYCAADSEIIYTVRNRTYPWIMDYWGQGTQVTVSS", "polyreactivity (PSR sort gate)": "low polyreactivity"},
      {"sequence": "QVQLVESGGGLVQAGGSLRLRCAASGSTFTSYTMGWYRQAPGKERELVARITRGGGSTYYADSVKGRFTISRDNAKNTVYLQMNSLKPEDTAVYYCAKQVVGRAYYSWGQGTQVTVSS", "polyreactivity (PSR sort gate)": "low polyreactivity"},
      {"sequence": "QVQLVESGGGLVQAGGSLRLRCAASGSTFYGNTMGWNRQAPGKERELVAAITWTGGRTYYADSVKGRFTISRDNAKNTVYLQMNSLIPEDTAVYYCARGASFYQKFYYWGQGTQVTVSS", "polyreactivity (PSR sort gate)": "high polyreactivity"},
      {"sequence": "QVQLVESGGGLVQAGGSLRLRCAASGSTFYGYVMGWYRQAPGQERELVAAITNRAGSTYYADSVKARFTISRDNAKNTVYVQMNSLKPEDTAVYYCNARRPAKSRYRHVYWGQVTQVTVSS", "polyreactivity (PSR sort gate)": "high polyreactivity"},
      {"sequence": "QVQLVESGGGLVQAGGSLRLRCAASGYNIQHYAMGWYRQAPGKERELVAAITSGGSTTYADSVKGRFTISRDNAKNTVYLQMNSLKPEDTAVYYCKALRRARYTRKGYEYWGQGTQVTVSS", "polyreactivity (PSR sort gate)": "high polyreactivity"},
      {"sequence": "QVQLVESGGGLVQAGGSLRLRCAASVRTFYTYAMGWYRQAPGKERELVAAISKRGTSTYYADSVKGRFTISRDNAKNTDYFQMNSLKPQDTAVYYCAAAVYQRARYYWGQGTQVTVSS", "polyreactivity (PSR sort gate)": "high polyreactivity"},
      {"sequence": "QVQLVESGGGLVQAGGSLRLRGAASGGILVGYAMGWYRQAPGKERELVAAINYSGGSTNYADSVKGRFTISRDNAKNTVYLQMNSLKPEDTAVYYCAARSTARYGYWGQGTQVTVSS", "polyreactivity (PSR sort gate)": "low polyreactivity"},
      {"sequence": "QVQLVESGGGLVQAGGSLRLRWDASGRILWYNAMGWYRQAPGKERELVAAIRSGGRTHYADSVKGRFTISRDNAKNTVYLQMNCLKPEDTAVYYCAARSVPYPYRRNPYDYWGQGTQVTVSS", "polyreactivity (PSR sort gate)": "high polyreactivity"},
      {"sequence": "QVQLVESGGGLVQAGGSLRLSCAAAGRTFYSYAMGWYRQAPGKEREFVAAINWSGTSTYADSVKGRFTISRDNAKNTVYLQMTSLKPEDTAVYYCAADLPAEYYHWGQGTQVTVSS", "polyreactivity (PSR sort gate)": "high polyreactivity"},
      {"sequence": "QVQLVESGGGLVQAGGSLRLSCAAAGRTVPRYTMGWYRQAPGKEMELVAAISRGGSTNYAYSVKGLFTISRDNAKNTVYLVMNSLKPEDTAVYYCNADYWYDWKSYDYWGEGTQVTVSS", "polyreactivity (PSR sort gate)": "high polyreactivity"},
      {"sequence": "QVQLVESGGGLVQAGGSLRLSCAAAGSTFHRYVMGWYRQAPGQERELVAVINSTGGSTYYADSVKGRFTISRDNAKNTVYLQMKCLKPEDTAVYYCARVTRRGPGYSTLFSRYDYWGQGTQVTVSS", "polyreactivity (PSR sort gate)": "low polyreactivity"},
      {"sequence": "QVQLVESGGGLVQAGGSLRLSCAAARIFVYNAMGWYRQAPGKERELVATITSSGGITYYADSVKGRFTISRDNAKNTVYLQMKSLKPEDTAVYYCNKVRRYYYRTHNVYWGQGTQVTVSS", "polyreactivity (PSR sort gate)": "high polyreactivity"},
      {"sequence": "QVQLVESGGGLVQAGGSLRLSCAAARYAMGWYRQAPGKERELVAAISKSGGSTYYADSVKGRFTISRDNAKNTVYLQMNSLKPEDTAVYYCAARGHAGRGEYYYWGQGTQVTVSS", "polyreactivity (PSR sort gate)": "high polyreactivity"},
      {"sequence": "QVQLVESGGGLVQAGGSLRLSCAACGFTFWDYAMGWYSQAPGKERELVAAISDNDGSTDYADSVKGRFTISRDNAKNTVYLQMNSLKPEDSAVYYCNAEIELPSKEGDYWGQGTQVTVSS", "polyreactivity (PSR sort gate)": "low polyreactivity"},
      {"sequence": "QVQLVESGGGLVQAGGSLRLSCAACGIIFEYNAMGWYRQAPGKVRELVASIDSGGSTNYADSVKGRFTISRDNAKNTVYLQKNSLKPEDTAVYYCNADDTTVSPWYYYYQSYYWGQGTQVTVSS", "polyreactivity (PSR sort gate)": "low polyreactivity"},
      {"sequence": "QVQLVESGGGLVQAGGSLRLSCAACGRTFQHYAMGWYRQAPGKERELVAAISSGGRTYYADSVKGRFTISRDNAKNTVYLLMNSLKPEDTAVYYCAARYHGRDPRQIRYGYWGQGTQVNVSS", "polyreactivity (PSR sort gate)": "high polyreactivity"},
      {"sequence": "QVQLVESGGGLVQAGGSLRLSCAACGRTFWSYAMGWYLQAPGKERELVAAINSGGSTDYADSVKGRFTISRDNAKNTVYLQMNSLKPEDTAVYYCAADTWYGFDWGQGTQVTVSS", "polyreactivity (PSR sort gate)": "high polyreactivity"},
      {"sequence": "QVQLVESGGGLVQAGGSLRLSCAACGSIFYYYAMGWYRQAPGKERELVAAITVSGGRTYYADSVKGRFTISRDNAKNSVYLQMNSLKPEDTAVYYCAARRGRYSYYYWGQGTQVTVSS", "polyreactivity (PSR sort gate)": "high polyreactivity"},
      {"sequence": "QVQLVESGGGLVQAGGSLRLSCAACGSTFSPNAMGWYRQAPGKERELVAAISGSGASTYYADSVKGRFTISRDNAKNTVYLQMNSLKPEDTAVYYCAADKPGIFSRFDYWGQGTQVTVSS", "polyreactivity (PSR sort gate)": "low polyreactivity"},
      {"sequence": "QVQLVESGGGLVQAGGSLRLSCAACGSTFSVHAMGWYRQAPGKERELVAAISWGGTSTYYADSVKGRFTISRDNAKNTVYLQMNSLKPEDTAVYYCAAVSRGKVNTVYYWGQGTQVTVSS", "polyreactivity (PSR sort gate)": "high polyreactivity"},
      {"sequence": "QVQLVESGGGLVQAGGSLRLSCAADGFTFYVYAMGWYRQAPGKERELVADISRRGGSTYYADYVKGRFTISRDNEKNHVYLQMNSLKPEDTAVYYCAAQYYGGGTYWYRYGYWGQGTQVTLSS", "polyreactivity (PSR sort gate)": "high polyreactivity"},
      {"sequence": "QVQLVESGGGLVQAGGSLRLSCAAPGLTFWSYAMGWYRPAPGKERELVADITYRGGSTYYADSVKGRFTISRDNAKNTVYLQMNSLKPEDTAVYYCAARKKYRFDYWGQGTQVTVSS", "polyreactivity (PSR sort gate)": "high polyreactivity"},
      {"sequence": "QVQLVESGGGLVQAGGSLRLSCAAPGSIFGTNAMGWYRQAPGKERELVAAINWSGGTTYYADSVKGRFTISRDNAKNTVYLQMNSLKPEDTAVYYCATVFFVLPPTRFDSWGQGTQVTVSS", "polyreactivity (PSR sort gate)": "low polyreactivity"}
    ]}
  ]
}
